The target of this series is T1, purified DARPP-32.
T1 sequence (Q9UD71 1-204, species assumed, looked up): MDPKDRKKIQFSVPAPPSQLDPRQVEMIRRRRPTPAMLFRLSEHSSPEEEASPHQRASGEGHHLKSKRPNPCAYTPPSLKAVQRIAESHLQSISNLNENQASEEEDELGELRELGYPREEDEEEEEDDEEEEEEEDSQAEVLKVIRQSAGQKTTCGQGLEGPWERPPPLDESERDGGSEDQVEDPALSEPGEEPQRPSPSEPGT

B1: Myc-tagged MM2-CK1ε (S323A/T325A/T334A/T337A/S368A/S405A/T407A/S408A), expressed in N2a cells from pCS-Myc-MM2-CK1ε (protein)
chain: MELRVGNKYRLGRKIGSGSFGDIYLGANIASGEEVAIKLECVKTKHPQLHIESKFYKMMQGGVGIPSIKWCGAEGDYNVMVMELLGPSLEDLFNFCSRKFSLKTVLLLADQMISRIEYIHSKNFIHRDVKPDNFLMGLGKKGNLVYIIDFGLAKKYRDARTHQHIPYRENKNLTGTARYASINTHLGIEQSRRDDLESLGYVLMYFNLGSLPWQGLKAATKRQKYERISEKKMSTPIEVLCKGYPSEFSTYLNFCRSLRFDDKPDYSYLRQLFRNLFHRQGFSYDYVFDWNMLKFGAARNPEDVDRERREHEREERMGQLRGAAARALPPGPPAGAAANRLRSAAEPVASTPASRIQPAGNTSPRAIARVDRERKVSMRLHRGAPANVSSSDLTGRQEVSRIPAAQAAVPFDHLGK
For B1, the “kinase activity of the immunoprecipitated enzyme with DARPP-32 as substrate, against HA-CK1ε” value is “approximately 2-fold more active than HA-CK1ε in the absence of DHPG”.
